The text below walks through data of US20110243929A1 (MEDLMMUNE, published 2011).

Several values for one entry are separate records, joined by “and”; a condition that tells them apart may be missing. Equal values may be shown once.

In one test the target is T1, human ICOS (human, UniProt Q9Y6W8 21-199).
T1 sequence: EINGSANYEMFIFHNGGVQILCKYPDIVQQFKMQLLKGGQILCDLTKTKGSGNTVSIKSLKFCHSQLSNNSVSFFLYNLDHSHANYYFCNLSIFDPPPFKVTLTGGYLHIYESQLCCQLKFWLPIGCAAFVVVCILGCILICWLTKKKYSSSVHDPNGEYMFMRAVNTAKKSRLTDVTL
Nature of the test: cell-based or functional assay.

Test [1] addresses T2, cynomolgus ICOS (cynomolgus, UniProt A0A2K5TQR6 21-168).
T2 sequence: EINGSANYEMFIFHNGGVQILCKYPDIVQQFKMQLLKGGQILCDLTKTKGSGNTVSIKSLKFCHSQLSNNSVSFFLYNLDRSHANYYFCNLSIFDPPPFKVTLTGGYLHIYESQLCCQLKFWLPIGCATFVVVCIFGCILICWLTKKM
Nature of the test: cell-based or functional assay.

Test [2] concerns the target T2, cynomolgus ICOS. Kind of test: cell-based or functional assay. This is another data set of the same source.
For test [3], the target named is T2, cynomolgus ICOS. Kind of test: cell-based or functional assay. The source holds these as a separate data set.
In a further test the target is T3, Human FcγRIIa (human, UniProt P12318).
T3 construct: extracellular domain
T3 sequence (extracellular domain, looked up): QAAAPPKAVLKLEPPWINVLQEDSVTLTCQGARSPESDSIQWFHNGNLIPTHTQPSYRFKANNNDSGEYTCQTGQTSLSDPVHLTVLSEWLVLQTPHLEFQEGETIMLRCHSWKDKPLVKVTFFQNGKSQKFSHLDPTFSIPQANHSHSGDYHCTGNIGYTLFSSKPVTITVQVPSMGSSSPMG
Nature of the test: BIAcore 3000; IgG immobilized on CM5 chip, soluble FcγR extracellular domain injected; equilibrium 1:1 binding isotherm. The protocol: (§1) The measurements are performed according to standard protocols. Briefly, all IgGs are immobilized onto separate flow cells of two CM5 sensor chips using standard amino coupling chemistry as recommended by the manufacturer. […] Stock solutions of the recombinantly expressed extracellular domains of all FcγRs at either 4000 or 16000 nM are prepared and then serially diluted down to the desired concentrations using the instrument buffer (50 mM HBS buffer containing 0.01 M HEPES, pH 7.4, 0.15 M NaCl, 3 mM EDTA and 0.005% P-20). Duplicate injections of each concentration of FcγR ared then injected over all of the IgG surfaces at a flow rate of 5 μL/min. Binding data are collected for approximately […], followed by a 30 sec. pulse of 5 mM HCl between injections to regenerate the IgG surfaces. Several buffer injections are also interspersed throughout the injection series. One of these buffer injections is used along with the reference cell data to correct the raw data sets. After all binding data is collected, individual data sets are averaged for each y concentration, then fit to a 1:1 binding isotherm from which the equilibrium binding constants, KD, are derived. Analysis is carried out using the BIAevaluation software.
A general note: In SPR one partner is held on a chip, and binding of the other changes the refractive index at the surface.

A further test concerns the target T4, Cynomolgus FcγRIIa (Macaca fascicularis, UniProt A0A140HDN0).
T4 construct: extracellular domain
T4 sequence (extracellular domain): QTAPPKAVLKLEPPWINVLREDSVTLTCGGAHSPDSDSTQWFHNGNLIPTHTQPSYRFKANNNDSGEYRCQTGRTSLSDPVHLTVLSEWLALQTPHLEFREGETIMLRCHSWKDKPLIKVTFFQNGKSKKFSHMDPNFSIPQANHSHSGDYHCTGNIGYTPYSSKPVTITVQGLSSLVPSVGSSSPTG
The description is as above. The protocol:
as §1

For a further test, the target named is T5, Human FcγRIIb (human, UniProt P31994).
T5 construct: extracellular domain; Only the IC9G1-aFuc cell is filled
T5 sequence (extracellular domain, looked up): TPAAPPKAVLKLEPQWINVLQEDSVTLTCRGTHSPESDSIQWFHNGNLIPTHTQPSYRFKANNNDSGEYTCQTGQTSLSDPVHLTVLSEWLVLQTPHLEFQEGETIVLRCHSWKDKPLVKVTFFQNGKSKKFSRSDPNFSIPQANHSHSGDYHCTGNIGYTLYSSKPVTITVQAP
The description is as above. The protocol:
as §1

Another test addresses T6, Cynomolgus FcγRIIb (Macaca fascicularis, UniProt A0A140HDP4).
T6 construct: extracellular domain
T6 sequence (extracellular domain): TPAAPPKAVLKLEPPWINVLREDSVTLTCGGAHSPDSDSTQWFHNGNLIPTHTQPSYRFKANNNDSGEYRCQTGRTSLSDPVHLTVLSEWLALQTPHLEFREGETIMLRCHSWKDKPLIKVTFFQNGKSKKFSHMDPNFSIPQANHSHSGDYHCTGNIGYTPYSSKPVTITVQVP
The test is described as above. On the procedure: as §1

In test [4] the target is T7, cynomolgus FcγRIIIA, recombinantly expressed extracellular domain (cynomolgus, UniProt Q8SPW2 17-208).
T7 construct: extracellular domain; also called cynomolgus FcgRIIIa
Described as above. The protocol:
as §1

T7 sequence (Q8SPW2 17-208): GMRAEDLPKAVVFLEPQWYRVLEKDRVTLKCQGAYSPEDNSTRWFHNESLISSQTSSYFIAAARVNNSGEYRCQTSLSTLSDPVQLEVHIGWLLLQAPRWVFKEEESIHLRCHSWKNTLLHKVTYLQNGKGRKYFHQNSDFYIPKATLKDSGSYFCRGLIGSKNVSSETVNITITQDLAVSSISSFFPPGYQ

B1: IC9G1-aFuc (afucosylated IC9G1 antibody composition) (antibody, human IgG1, kappa)
heavy: not shown
light: DIQMTQSPSSVSASVGDRVTITCRASQGISRLLAWYQQKPGKAPKLLIYVASSLQSGVPSRFSGSGSGTDFTLTISSLQPEDFATYYCQQANSFPWTFGQGTKVEIKRTVAAPSVFIFPPSDEQLKSGTASVVCLLNNFYPREAKVQWKVDNALQSGNSQESVTEQDSKDSTYSLSSTLTLSKADYEKHKVYACEVTHQGLSSPVTKSFNRGEC
modifications: chain 1 pos 305 (Asn297, EU numbering): complex N-glycoside-linked sugar chain without fucose on the reducing-end N-acetylglucosamine, written N
notes: Same polypeptides as IC9G1 (JMab-136 VH/VK, human IgHγ1 constant region, kappa); also called IG9G1-aFuc; ICG91-aFuc; copies: 2 + 2
Consider B1, for which the “EC50 of ADCC activity (isolated human NK effector cells, 2:1, overnight)” value with human ICOS was 0.0082 nM; with cynomolgus ICOS [1] it was 0.0146 nM and 0.0171 nM. Also, in the test with cynomolgus ICOS [2], the “EC50 of ADCC (% cytotoxicity; human NK effector cells, isolated cynomolgus splenic T cells as targets)” value is 0.00205 µg/mL. In addition, the “EC50 of ADCC (% cytotoxicity; human NK effector cells, isolated cynomolgus mesenteric lymph node T cells as targets)” value with cynomolgus ICOS [3] worked out at 0.0024 µg/mL. The Kd with Human FcγRIIa came to 2010 nM; in the test with Cynomolgus FcγRIIa, 3140 nM; in the test with Human FcγRIIb it was 14000 nM; with Cynomolgus FcγRIIb it was 1950 nM; in test [4], 21 nM.

B2: IC9G1 (anti ICOS antibody comprising JMab-136 VH and VL domains and the IgHγ1 constant region) (antibody, human IgG1, kappa)
heavy: not shown
light: B1 light
notes: The rest is a human IgHγ1 constant region (IgG1) and a human IgLK (kappa) constant region; copies: 2 + 2
For the molecule B2, the “EC50 of ADCC activity (isolated human NK effector cells, 2:1, overnight)” value in the test with human ICOS is 0.0604 nM; with cynomolgus ICOS [1] it was 0.236 nM and 0.198 nM. Moreover, in the test with cynomolgus ICOS [2], the “EC50 of ADCC (% cytotoxicity; human NK effector cells, isolated cynomolgus splenic T cells as targets)” value was 0.0331 µg/mL. Further, in the test with cynomolgus ICOS [3], the “EC50 of ADCC (% cytotoxicity; human NK effector cells, isolated cynomolgus mesenteric lymph node T cells as targets)” value is 0.0278 µg/mL. Also, the Kd with Human FcγRIIa worked out at 3310 nM; with Cynomolgus FcγRIIa, 5280 nM; in the test with Cynomolgus FcγRIIb, 2370 nM; in test [4] it was 394 nM.

As usually defined, the Kd is a measure of binding affinity in units of concentration.
